Assay results reported in article PMC3828522.

What was measured:
[1] = biological target: Pho full-length (Drosophila melanogaster, UniProt Q8ST83 1-520); test: EMSA
[2] = biological target: T1, Sfmbt 4MBT wild type (Drosophila melanogaster, UniProt Q9VK33 531-980); test: EMSA
T1 sequence: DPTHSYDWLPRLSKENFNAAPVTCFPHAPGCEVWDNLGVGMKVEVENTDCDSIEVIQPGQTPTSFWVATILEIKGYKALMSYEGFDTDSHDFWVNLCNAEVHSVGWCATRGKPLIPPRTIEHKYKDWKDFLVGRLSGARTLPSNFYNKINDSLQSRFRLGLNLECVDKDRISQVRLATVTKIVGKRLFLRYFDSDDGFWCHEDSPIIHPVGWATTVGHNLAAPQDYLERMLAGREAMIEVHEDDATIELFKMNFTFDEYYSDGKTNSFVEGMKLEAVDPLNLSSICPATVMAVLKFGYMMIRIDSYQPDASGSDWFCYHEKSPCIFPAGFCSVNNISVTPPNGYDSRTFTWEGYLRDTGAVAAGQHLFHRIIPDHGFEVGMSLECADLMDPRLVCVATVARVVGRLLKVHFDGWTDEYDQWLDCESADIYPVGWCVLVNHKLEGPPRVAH

[3] = biological target: Pho full-length;Sfmbt 4MBT wild type (Drosophila melanogaster;Drosophila …, UniProt Q8ST83;Q9VK33 1-520;531-980, |); test: EMSA supershift
Chain of Pho full-length;Sfmbt 4MBT wild type (Q8ST83 whole entry, one chain of several): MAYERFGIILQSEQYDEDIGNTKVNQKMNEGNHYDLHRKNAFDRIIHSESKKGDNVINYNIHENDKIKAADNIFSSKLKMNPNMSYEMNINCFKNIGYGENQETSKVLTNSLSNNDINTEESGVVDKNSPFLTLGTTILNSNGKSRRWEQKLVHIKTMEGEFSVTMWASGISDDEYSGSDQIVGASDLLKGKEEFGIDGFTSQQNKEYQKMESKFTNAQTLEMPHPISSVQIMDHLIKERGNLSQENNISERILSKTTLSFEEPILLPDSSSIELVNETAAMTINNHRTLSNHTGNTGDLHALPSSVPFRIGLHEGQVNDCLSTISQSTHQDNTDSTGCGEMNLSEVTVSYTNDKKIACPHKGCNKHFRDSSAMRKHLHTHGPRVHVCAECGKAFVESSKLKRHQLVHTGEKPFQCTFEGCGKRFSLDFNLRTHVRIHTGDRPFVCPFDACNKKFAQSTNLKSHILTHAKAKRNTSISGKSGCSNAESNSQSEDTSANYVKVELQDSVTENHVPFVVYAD

Chain of Pho full-length (Q8ST83 whole entry): as the sequence (Q8ST83 whole entry, one chain of several) above

B1: Pho DNA-binding site probe (dsDNA)
DNA 1: CTCCGTCGCCATAACTGTCG
DNA 2: CGACAGTTATGGCGACGGAG
B1: binds [1]; no binding [2]; binds [3].
